Measured values published in patent US20120077957A1 (PALATIN TECHNOLOGIES, published 2012).
Where two headings read alike, the source gives them in different places. Numbered stars: 1 amine (or outer) side, 2 acyl side, 3 side chain; on linkers, the order of the positions; unused ones are H or OH. Bridge positions count the residues as written; N and C are the ends. Square brackets hold non-standard residues; d marks the D form. Ser(Bzl) = O-benzyl-serine, O=C([C@H](COCc1ccccc1)N[*:1])[*:2]; Orn = NCCC[C@H](N)C(=O)O; Dab = NCC[C@H](N)C(=O)O

Tests used:
[1] = target: T1, human melanocortin-4 receptor (recombinant hMC4-R) (human, UniProt P32245 1-332); test: cell-based or functional assay
T1 sequence (P32245 whole entry): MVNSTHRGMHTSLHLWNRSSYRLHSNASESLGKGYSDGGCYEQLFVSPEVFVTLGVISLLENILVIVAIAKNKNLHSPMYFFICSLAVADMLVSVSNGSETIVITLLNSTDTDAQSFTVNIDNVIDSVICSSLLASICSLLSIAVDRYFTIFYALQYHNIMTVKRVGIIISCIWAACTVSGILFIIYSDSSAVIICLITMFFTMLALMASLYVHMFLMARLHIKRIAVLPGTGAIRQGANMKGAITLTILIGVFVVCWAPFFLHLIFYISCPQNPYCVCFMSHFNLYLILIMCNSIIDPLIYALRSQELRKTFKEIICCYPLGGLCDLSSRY

[2] = target: T1, human melanocortin-4 receptor …; test: competition with labelled NDP-α-MSH ([I125] or Eu), hMC4-R HEK-293 membranes
Method: (§1) After incubation for 60 minutes at 37° C., the assay mixture was filtered and the membranes washed three times with ice-cold buffer. Filters were dried and counted in a gamma counter for bound radioactivity. […] Maximal specific binding (100%) was defined as the difference in radioactivity (cpm) bound to cell membranes in the absence and presence of 1 μM NDP-α-MSH. […] Ki values for test peptides of the present invention were determined using Graph-Pad Prism® curve-fitting software.
(§2) After incubation for 90 minutes at 37° C., the reaction was stopped by filtration over AcroWell 96-well filter plates (Pall Life Sciences). The filter plates were washed 4 times with 200 μL of ice-cold phosphate-buffered saline. DELFIA Enhancement solution (PerkinElmer Life Sciences) was added to each well. The plates were incubated on a shaker for 15 minutes and read at 340 nm excitation and 615 nm emission wavelengths. Each assay was conducted in duplicate and mean values were utilized. Ki values were determined by curve-fitting with Graph-Pad Prism® software using a one-site fixed-slope competition binding model.

[3] = target: T1, human melanocortin-4 receptor …; test: cell-based or functional assay; remark: listed apart in the source
[4] = target: T1, human melanocortin-4 receptor …; test: competition with labelled NDP-α-MSH ([I125] or Eu), hMC4-R HEK-293 membranes; remark: listed apart in the source
Method: as §1, §2

| Binder | Ec50 (nM), cAMP [1] | Emax (%), cAMP [1] | Ki [2] | Ec50 (nM), cAMP [3] | Emax (%), cAMP [3] | Ki [4] |
| --- | --- | --- | --- | --- | --- | --- |
| Ac-R[Orn][Dab][dF]RWE-NH2 (lactam 2-7) [Peptide No. 43: Ac-Arg-cyclo(Orn-Dab-D-Phe-Arg-Trp-Glu)-NH2] | 0.1 nM | 103% | 3 nM | – | – | – |
| Ac-[dR][Orn]H[dF]RWE-NH2 (lactam 2-7) [Peptide No. 39: Ac-D-Arg-cyclo(Orn-His-D-Phe-Arg-Trp-Glu)-NH2] | 0.2 nM | 103% | 4 nM | – | – | – |
| Ac-RD[Ser(Bzl)][dF]RWK-OH (lactam 2-7, also called Peptide Structure (Asp...Lys) in the rows of No. 17 and No. 48) [Asp...Lys analog of peptides No. 17 and No. 48: Ac-Arg-cyclo(Asp-Ser(Bzl)-D-Phe-Arg-Trp-Lys)-OH] | 5 nM | 38% | 9 nM | 5 nM | 38% | 9 nM |
| Ac-RDN[dF]RWK-NH2 (lactam 2-7; SMILES CC(=O)N[C@@H](CCCNC(=N)N)C(=O)N[C@H]1CC(=O)NCCCC[C@@H](C(N)=O)NC(=O)[C@H](Cc2c[nH]c3ccccc23)NC(=O)[C@H](CCCNC(=N)N)NC(=O)[C@@H](Cc2ccccc2)NC(=O)[C@H](CC(N)=O)NC1=O, also called Peptide Structure (Asp...Lys) in the rows of No. 34 and No. 46) [Asp...Lys analog of peptides No. 34 and No. 46: Ac-Arg-cyclo(Asp-Asn-D-Phe-Arg-Trp-Lys)-NH2] | 42 nM | 91% | 32 nM | 42 nM | 91% | 32 nM |
